Test [1] concerns the target T1, PP2Ac C-terminal peptide meL309, ac-HVTRRTPDYFL-CH3 (α-carboxymethylated) (human, SMILES …).
T1 construct: also called Y307-meL309; mePP2Ac
T1 peptide: Ac-HVTRRTPDYFL-OMe
Nature of the test: SPR, from KD 11 nM against >5000 nM. The text has this: (§1) (A) Saturation curve of the titration of the α-carboxymethylated PP2Ac C-terminal peptide (SEQ ID NO:18) on 7C10-C5 or 2A10 immobilized on a Series S Sensor Chip CM5 (GE Healthcare, 10296958). […] (B) Saturation curve of the titration of the α-carboxymethylated PP4c C-terminal peptide (SEQ ID NO:20) on 7C10-C5 or 2A10 immobilized on a Series S Sensor Chip CM5 (GE Healthcare, 10296958). […] The KD values were obtained using the fitting tool of the BiacoreT200 Evaluation Software (version 3.1).
(§2) The differential affinity of anti-carboxymethylated PP2Ac antibodies, 7C10-C5 and 2A10, to carboxymethylated PP2A catalytic subunit versus noncarboxymethylated PP2A catalytic subunit was determined by surface plasmon resonance (SPR) on a Biacore T200 (GE Healthcare) at the Core Facility Biomolecular & Cellular Analysis (University of Natural Resources and Life Sciences Vienna BOKU). The affinity of 7C10-C5 for carboxymethylated and noncarboxymethylated catalytic subunit of PP4 (PP4c), a PP2A-related phosphatase, was also determined.
In general terms: Surface plasmon resonance follows binding to a sensor surface in real time, without labels.

In test [2] the target is PP2Ac C-terminal peptide pT304-meL309, ac-HVTRRpTPDYFL-CH3 (human). Description: ELISA, peptide dilution series, supernatant 1:50.
Test [3] concerns the target T2, mouse HA PP6c, carboxymethylated (immunoprecipitated from NIH3T3 cells) (mouse, UniProt Q9CQR6 1-305, C-terminal leucine α-carboxyl methyl ester (cellular methylation)).
T2 construct: mature; also called methylated PP6c; not shown: HA tag
T2 sequence (looked up): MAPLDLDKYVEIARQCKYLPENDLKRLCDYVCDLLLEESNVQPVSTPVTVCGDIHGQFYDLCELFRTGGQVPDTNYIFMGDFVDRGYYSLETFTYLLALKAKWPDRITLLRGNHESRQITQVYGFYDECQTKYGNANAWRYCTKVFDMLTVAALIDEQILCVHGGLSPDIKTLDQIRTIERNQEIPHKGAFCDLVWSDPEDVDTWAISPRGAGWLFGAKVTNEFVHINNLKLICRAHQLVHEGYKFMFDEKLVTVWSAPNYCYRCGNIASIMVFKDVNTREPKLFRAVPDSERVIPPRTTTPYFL
Description: Western blot of anti-HA immunoprecipitates from NIH3T3 cells, with quantification, N=3. The text has this: (A) Alignment of the C-termini of mammalian catalytic PP2Ac, PP4c and PP6c subunits (B) Immunoblotting of anti HA-immunoprecipitates of NIH3T3 cells either infected with retroviral supernatants of pBabe hygro (control) or pBabe hygro HA-PP2Ac (label “HA-PP2A), pBabe hygro HA-PP4c (label “HA-PP4”) or pBabe hygro HA-PP6c (label HA-PP6) using indicated antibodies. The label “7C10” refers to the 7C10-C5 monoclonal antibody. To equilibrate HA levels, 2 times more of the HA-PP4c and 3 times more of the HA-PP6c immunoprecipitates was loaded than HA-PP2Ac. The panel originates from 3 different blotting membranes for each antibody indicated in the panel. The blots are representative of N=3 independent immunoprecipitation experiments. The 2A10 and 7C10-C5 signals were quantified from N=3 independent experiments, normalized to the HA levels and the HA-PP2Ac signals were set to 1. Average and standard deviation (error bars) are shown. Statistical significance was assessed using ANOVA followed by Tukey's HSD as a post-hoc test. […]
Background: A western blot detects proteins with antibodies after separation by electrophoresis.

Test [4] has as its target PP2Ac C-terminal peptide pY307-meL309, ac-HVTRRTPDpYFL-CH3 (human). Description: ELISA, 4-fold dilution series of coated peptide, hybridoma supernatant 1:50, normalized.
Test [5] addresses T1, PP2Ac C-terminal peptide meL309, …. Description: SPR, ratio of steady-state KD values.
Text: as §1, §2

B1: 7C10-C5 monoclonal antibody (antibody, V domains shown)
VH: DVQLQESGPGLVKPSQSLSLTCSVTGYSITSGYYWNWIRQFPGNKLEWMGYISYDGSNNYNPSLKNRISITRDTSKNQFFLKLNSVTTEDTATYYCAGRFAYWGQGTLVTVSA
VL: DVLMTQTPLSLPVSLGDQASISCRSSQSIVHSNGNTYLEWYLQKPGQSPKLLIYKVSNRFSGVPDRFSGSGSGTDFTLKINRVEAEDLGVYYCFQGSHVPWTFGGGTKLEIK
notes: Used as hybridoma culture supernatant (ELISA, Western blot, IHC) or at 50 µg/mL (SPR); also called 7C10 X63; clone 7C10-C5
The EC50 (read off the curve) is the concentration that produces a half-maximal response. Regarding B1, the “fold stronger binding than to non-carboxymethylated PP2Ac” value in test [1] was ≥ 400 fold. In test [2], this molecule had a fold detection difference against the carboxymethylated peptide (meL309) at lower peptide concentrations of 4 fold. Further, the binding result in test [3] was “no binding”. This molecule had a half-maximal effective concentration (EC50 (read off the curve)) in test [4] of 0.3 µg/mL. Further, the “fold stronger binding than to carboxymethylated PP4c (ratio of KD)” value in test [5] amounted to 12 fold.

(Values after US20230121197A1, “ANTIBODIES SPECIFICALLY BINDING THE CARBOXYMETHYLATED CATALYTIC SUBUNIT OF PROTEIN PHOSPHATASE 2A” (Medizinische Universität Wien, priority 2020, published 2023).)
